# Data taken from patent publication US20180155451A1 (published 2018).
# Substitutions are numbered along the chain they refer to.
# T1: FcγRIIb extracellular domain with C-terminal His tag (human, UniProt P31994 43-217)
# T1 construct: extracellular domain; also called FcgRIIb; 2b; not shown: His tag at the C terminus
# T1 sequence (looked up): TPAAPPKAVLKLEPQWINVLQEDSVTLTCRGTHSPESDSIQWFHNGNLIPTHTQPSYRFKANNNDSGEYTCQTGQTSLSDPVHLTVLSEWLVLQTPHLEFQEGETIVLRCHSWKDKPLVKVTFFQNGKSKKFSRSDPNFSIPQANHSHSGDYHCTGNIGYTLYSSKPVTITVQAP
# T2: FcγRIIa R type extracellular domain with C-terminal His tag (human, UniProt P12318 34-217)
# T2 construct: extracellular domain; also called FcgRIIa R; FcgRIIaR; not shown: His tag at the C terminus
# T2 sequence (looked up): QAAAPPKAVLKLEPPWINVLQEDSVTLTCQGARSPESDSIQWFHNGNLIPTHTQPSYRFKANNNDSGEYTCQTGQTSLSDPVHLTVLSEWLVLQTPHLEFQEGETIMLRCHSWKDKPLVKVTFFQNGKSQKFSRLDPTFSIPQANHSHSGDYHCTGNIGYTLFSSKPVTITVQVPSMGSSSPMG
# T3: FcγRIIa H type extracellular domain with C-terminal His tag (human, UniProt P12318 34-217)
# T3 construct: extracellular domain; also called FcgRIIa H; FcgRIIaH; not shown: His tag at the C terminus
# T3 sequence (looked up): T2 sequence (looked up) with R134H
# B1: H240-AK072/H240-BH076/L73-k0 (antibody, human IgG1, kappa)
# heavy 1: QDQLVQSGAEVKKPGASVKVSCKASGFNIKDTYIQWVRQAPGQGLEWMGRIDPLRKQTKYREKFEGRVTITADTSTNTAYMELSSLRSEDTAVYYCVRSGREFDYWGQGTLVTVSSASTKGPSVFPLAPSSKSTSGGTAALGCLVKDYFPEPVTVSWNSGALTSGVHTFPAVLQSSGLYSLSSVVTVPSSSLGTQTYICNVNHKPSNTKVDKKVEPKSCDKTHTCPPCPAPEYYWGPSVFLFPPKPKDTLMISRTPEVTCVVVDVSDEEPEVKFNWYVDGVEVHNAKTKPREEQYNATYRVVSVLTVLHQDWLNGKEYKCKVSNKALPAPIEKTISKAKGQPREPQVYTLPPSRKEMTKNQVSLTCLVKGFYPSDIAVEWESNGQPENNYKTTPPVLDSDGSFFLYSKLTVDKSRWQQGNVFSCSVMHEALHNRYTQKSLSLSP
# heavy 2: QDQLVQSGAEVKKPGASVKVSCKASGFNIKDTYIQWVRQAPGQGLEWMGRIDPLRKQTKYREKFEGRVTITADTSTNTAYMELSSLRSEDTAVYYCVRSGREFDYWGQGTLVTVSSASTKGPSVFPLAPSSKSTSGGTAALGCLVKDYFPEPVTVSWNSGALTSGVHTFPAVLQSSGLYSLSSVVTVPSSSLGTQTYICNVNHKPSNTKVDKKVEPKSCDKTHTCPPCPAPELLGGPSVFLFPPKPKDTLMISRTPEVTCVVVDVSHEEPEVKFNWYVDGVEVHNAKTKPREEQYNSTYRVVSVLTVLHQDWLNGKEYKCKVSNDALPMPIEETISKAKGQPREPQVYTLPPSREEMTKNQVSLTCLVKGFYPSDIAVEWESNGQPENNYKTTPPVLDSDGSFFLYSKLTVDKSRWQQGNVFSCSVMHEALHNHYTQESLSLSP
# light: DIQMTQSPSSLSASVGDRVTITCRASQDIHKYIAWYQQKPGQAPRLLIQYTSTLQPGVPSRFSGSGSGTDYTFTISSLQPEDIATYYCLQYEQLRTFGGGTKVEIKRTVAAPSVFIFPPSDEQLKSGTASVVCLLNNFYPREAKVQWKVDNALQSGNSQESVTEQDSKDSTYSLSSTLTLSKADYEKHKVYACEVTHQGLSSPVTKSFNRGEC
# notes: Heterodimerized anti-epiregulin (EREG) IgG1 antibody with two different H chains
# B2: J142-z73/L180-k (antibody, human IgG4 S228P, kappa)
# heavy: QVQLVQSGSELKKPGASVKVSCKASGYTFTDNNMDWVRQAPGQGLEWMGDINTRSGGSIYNEEFQDRVTMTIDKSTGTAYMELSSLRSEDTAVYYCARRRSYGYYHDEWGEGTLVTVSSASTKGPSVFPLAPCSRSTSESTAALGCLVKDYFPEPVTVSWNSGALTSGVHTFPAVLQSSGLYSLSSVVTVPSSSLGTKTYTCNVDHKPSNTKVDKRVESKYGPPCPPCPAPEFLGGPSVFLFPPKPKDTLMISRTPEVTCVVVDVSQEDPEVQFNWYVDGVEVHNAKTKPREEQFNSTYRVVSVLTVLHQDWLNGKEYKCKVSNKGLPSSIEKTISKAKGQPREPQVYTLPPSQEEMTKNQVSLTCLVKGFYPSDIAVEWESNGQPENNYKTTPPVLDSDGSFFLYSRLTVDKSRWQEGNVFSCSVMHEALHNRFTQESLSLSP
# light: DIQMTQSPSSLSASVGDRVTITCKASRNIERNLAWYQQKPGQAPELLIYSASRKESGVPDRFSGSRYGTDFTLTISSLQPEDLATYYCQQYYSPPLTFGGGTKVEIKRTVAAPSVFIFPPSDEQLKSGTASVVCLLNNFYPREAKVQWKVDNALQSGNSQESVTEQDSKDSTYSLSSTLTLSKADYEKHKVYACEVTHQGLSSPVTKSFNRGEC
# notes: also called homomeric antibody against FX
# B3: J300-z107/L210-k (antibody, human IgG4 S228P, kappa)
# heavy: B2 heavy with T69I, I72V, G77D, Y95H, R100K, H106L, K198Q, F295Y, R408K, F435Y
# light: B2 light with L83I, Y92S
# notes: Homomeric by-product in the culture medium of cells that express Q407-z106/J300-z107/L210-k; The H chain gene was made by linking z107 downstream of J300; also called homomeric antibody against FX
# What was measured:
# [1] = target: T1, FcγRIIb extracellular domain with …; assay: SPR (Biacore), antibody captured on chip, soluble FcgR as analyte; experiment 1
# [2] = target: T4, FcγRIIIa V type extracellular domain with C-terminal His tag (human, UniProt P08637 17-208); assay: as above
# T4 construct: extracellular domain; also called FcgRIIIa V; FcgRIIIaV; not shown: His tag at the C terminus
# [3] = target: T2, FcγRIIa R type extracellular domain …; assay: as above
# [4] = target: T5, FcγRIa extracellular domain with C-terminal His tag (human, UniProt P12314 16-292); assay: as above
# T5 construct: extracellular domain; also called FcgRI; FcgRIa; not shown: His tag at the C terminus
# [5] = target: T6, FcγRIIIa F type extracellular domain with C-terminal His tag (human, UniProt P08637 17-208); assay: as above
# T6 construct: extracellular domain; also called FcgRIIIa F; FcgRIIIaF; not shown: His tag at the C terminus
# [6] = target: T3, FcγRIIa H type extracellular domain …; assay: as above
# [7] = target: T1, FcγRIIb extracellular domain with …; assay: SPR (Biacore), antibody captured on chip, soluble FcgR as analyte; experiment 2
# Experimental: (§1) Antibodies of interest were analyzed for the interaction to FcgR according to the method described in Reference Example 8.
# (§2) Analysis of interaction between obj ective antibody and the FcγR was carried out using Biacore T100 (GE Healthcare), Biacore T200, Biacore A100, and Biacore 4000. HBS-EP+ (GE Healthcare) was used as the running buffer, and the measurement temperature was set to 25° C. Chips produced by immobilizing the antigen peptide by the amine coupling method to a Series S sensor Chip CM5 (GE Healthcare), chips produced by allowing preliminarily biotinylated antigen peptides to interact with and immobilize onto a Series S Sensor Chip SA (certified) (GE Healthcare), chips produced by immobilizing Protein L (ACTIGEN, BioVision) to Series S Sencor Chip CM5 (GE Healthcare), or chips produced by immobilizing Protein A/G (Thermo Scientific) to Series S Sencor Chip CM5 (GE Healthcare) were used. Antibodies of interest were captured onto these chips, and allowed to interact to each FcγR diluted with running buffer. To regenerate and repeatedly use the chip, the antibodies captured onto the chip were washed off by reacting 10 mM glycine-HCl, pH 1.5.
# [8] = target: T4, FcγRIIIa V type extracellular domain …; assay: as above
# Experimental: as §1, §2
# [9] = target: T2, FcγRIIa R type extracellular domain …; assay: as above
# Experimental: as §1, §2
# [10] = target: T5, FcγRIa extracellular domain with …; assay: as above
# Experimental: as §1, §2
# [11] = target: T6, FcγRIIIa F type extracellular domain …; assay: as above
# Experimental: as §1, §2
# [12] = target: T3, FcγRIIa H type extracellular domain …; assay: as above
# Experimental: as §1, §2
# [13] = target: T1, FcγRIIb extracellular domain with …; assay: SPR (Biacore), antibody captured on chip, soluble FcgR as analyte; experiment 3
# Experimental: as §1, §2
# [14] = target: T4, FcγRIIIa V type extracellular domain …; assay: as above
# Experimental: as §1, §2
# [15] = target: T2, FcγRIIa R type extracellular domain …; assay: as above
# Experimental: as §1, §2
# [16] = target: T5, FcγRIa extracellular domain with …; assay: as above
# Experimental: as §1, §2
# [17] = target: T6, FcγRIIIa F type extracellular domain …; assay: as above
# Experimental: as §1, §2
# [18] = target: T3, FcγRIIa H type extracellular domain …; assay: as above
# Experimental: as §1, §2
# [19] = target: T7, Protein A (rProtein A Sepharose Fast Flow) (UniProt P38507 37-327); assay: Protein A affinity chromatography (rProtein A Sepharose Fast Flow); the species is 3.2% of the Protein G-purified control but is not found in the pH 3.6 or the pH 2.7 elution fraction (cation exchange analysis)
# T7 construct: Bought chromatography resin
# Experimental: (§3) CM filtered through ϕ0.22-μm filter was loaded onto rProtein A Sepharose Fast Flow column (GE Healthcare) equilibrated with D-PBS. Washes 1 and 2 and Elutions 1 and 2 shown in Table 76 were carried out (Elution 1 alone was performed for Q407-z106/J300-z107/L210-k). […] The quantity of CM to be loaded was adjusted in a way that the quantity of the loaded antibody is 20 mg/ml resine. Fractions eluted under each condition were collected and the components contained in each elution fraction were identified by cation exchange chromatography analysis. […] Samples purified by batchwise elution were used as controls.
# (§4) The values represent the area of elution peak expressed in percentage.
# [20] = target: T7, Protein A (rProtein A Sepharose Fast …); assay: Protein A affinity chromatography (rProtein A Sepharose Fast Flow); the species is 5.8% of the Protein G-purified control but is not found in the pH 3.6 elution fraction (cation exchange analysis)
# Experimental: as §3, §4
# T5 sequence (P12314 16-292): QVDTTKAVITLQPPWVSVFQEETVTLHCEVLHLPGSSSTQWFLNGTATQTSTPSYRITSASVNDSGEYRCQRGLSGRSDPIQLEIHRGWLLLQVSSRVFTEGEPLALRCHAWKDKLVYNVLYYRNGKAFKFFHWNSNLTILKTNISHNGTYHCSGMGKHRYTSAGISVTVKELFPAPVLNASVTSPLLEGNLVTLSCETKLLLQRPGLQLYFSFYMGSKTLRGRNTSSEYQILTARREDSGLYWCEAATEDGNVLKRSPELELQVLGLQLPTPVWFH
# T6 sequence (P08637 17-208): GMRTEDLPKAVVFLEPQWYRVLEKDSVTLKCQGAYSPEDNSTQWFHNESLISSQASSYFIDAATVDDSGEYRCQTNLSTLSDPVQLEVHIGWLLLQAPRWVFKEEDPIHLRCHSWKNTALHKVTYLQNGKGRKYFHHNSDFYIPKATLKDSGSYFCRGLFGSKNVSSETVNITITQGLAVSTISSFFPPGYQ
# T4 sequence (P08637 17-208 F176V): as the sequence (P08637 17-208) above, with F160V counted along it
binder,measurement,setting,value
B1,Kd,[1],1300 nM
same,Kd,[2],0.99 nM
same,Kd,[3],240 nM
same,Kd,[4],0.11 nM
same,Kd,[5],2.9 nM
same,Kd,[6],72 nM
same,Kd,[7],1500 nM
same,Kd,[8],1.2 nM
same,Kd,[9],280 nM
same,Kd,[10],0.12 nM
same,Kd,[11],3.7 nM
same,Kd,[12],69 nM
same,Kd,[13],1400 nM
same,Kd,[14],1.2 nM
same,Kd,[15],240 nM
same,Kd,[16],0.11 nM
same,Kd,[17],3.7 nM
same,Kd,[18],79 nM
B2,binding result,[19],no binding
B3,binding result,[20],no binding
